Series [1] deals with T1, CbrB (Pseudomonas putida, UniProt A0ABM7EKZ2 1-480).
T1 sequence: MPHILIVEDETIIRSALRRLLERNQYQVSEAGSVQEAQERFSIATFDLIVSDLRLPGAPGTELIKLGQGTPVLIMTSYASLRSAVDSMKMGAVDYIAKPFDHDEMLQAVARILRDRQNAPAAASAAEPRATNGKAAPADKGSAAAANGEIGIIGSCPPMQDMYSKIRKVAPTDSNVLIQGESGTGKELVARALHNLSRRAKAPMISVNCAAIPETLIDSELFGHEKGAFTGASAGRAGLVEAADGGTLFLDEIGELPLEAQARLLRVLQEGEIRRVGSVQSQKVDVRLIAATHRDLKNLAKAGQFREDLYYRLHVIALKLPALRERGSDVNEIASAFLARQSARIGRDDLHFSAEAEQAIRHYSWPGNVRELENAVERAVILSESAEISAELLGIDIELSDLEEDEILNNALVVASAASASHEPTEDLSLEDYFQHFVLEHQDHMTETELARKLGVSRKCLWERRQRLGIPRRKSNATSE
The series can be described thus: EMSA; EMSA at room temperature; crcZ/crcY (5 nM): 35 mM Tris-acetate pH 7.9, 70 mM KAc, 20 mM NH4Ac, 2 mM MgAc2, 1 mM CaCl2, 1 mM DTT, 5% glycerol; others (1.5 nM) and footprint: 50 mM Tris-HCl pH 7.4, 50 mM KCl, 10 mM MgCl2, 0.1 mM EDTA, 1 mM DTT; plus 100 ng/ul salmon sperm DNA, 250 ng/ul BSA. The note with it: protein: recombinant, tags: N-terminal His tag (pET-14b derived pMPO1229), label: 32P-dATP Klenow fill-in. (In EMSA bound probe runs differently from free probe, usually more slowly.)

Series [2] addresses T1, CbrB. The series can be described thus: EMSA; not significantly affected; EMSA at room temperature; crcZ/crcY (5 nM): 35 mM Tris-acetate pH 7.9, 70 mM KAc, 20 mM NH4Ac, 2 mM MgAc2, 1 mM CaCl2, 1 mM DTT, 5% glycerol; others (1.5 nM) and footprint: 50 mM Tris-HCl pH 7.4, 50 mM KCl, 10 mM MgCl2, 0.1 mM EDTA, 1 mM DTT; plus 100 ng/ul salmon sperm DNA, 250 ng/ul BSA. The note with it: protein: recombinant; tags: N-terminal His tag (pET-14b derived pMPO1229); label: 32P-dATP Klenow fill-in; 5' overhang 2 nt at both ends before fill-in.

The mark [3] stands for this setting: 5' overhang 2 nt at both ends before fill-in.

B1: PcrcZ wt 72 bp (dsDNA)
DNA 1: TTCCCGTAAAAATCTGTTACCCAAGCTTTCCGCCGTAACAGTCCCCGAGGCGTACGGTAACGAAATTGCGACAT
DNA 2: TTATGTCGCAATTTCGTTACCGTACGCCTCGGGGACTGTTACGGCGGAAAGCTTGGGTAACAGATTTTTACGGG
On to B1, for which, in series [1] (setting [3]), the binding result was “binds”.

B2: PcrcZ R1 mutant (dsDNA)
DNA 1: TTCCCGTAAAAATCTGTTACCCAAGCTTTCCGCCTGCTACGTCCCCGAGGCGTACGGTAACGAAATTGCGACAT
DNA 2: TTATGTCGCAATTTCGTTACCGTACGCCTCGGGGACGTAGCAGGCGGAAAGCTTGGGTAACAGATTTTTACGG
Consider B2, for which the binding result in series [1] (5' overhang 2 nt (one end 3 nt, reverse strand printed one G shorter) before fill-in) is on record as “no binding”.

B3: PcrcZ F1 mutant (dsDNA)
DNA 1: TTCCCGTAAAAATCGACTCTCCAAGCTTTCCGCCGTAACAGTCCCCGAGGCGTACGGTAACGAAATTGCGACAT
DNA 2: TTATGTCGCAATTTCGTTACCGTACGCCTCGGGGACTGTTACGGCGGAAAGCTTGGAGAGTCGATTTTTACGGG
Regarding B3, in series [1] (setting [3]), the binding result is “no binding”.

B4: PcrcZ R2 mutant (dsDNA)
DNA 1: TTCCCGTAAAAATCTGTTACCCAAGCTTTCCGCCGTAACAGTCCCCGAGGCGTACGTACCGTAAATTGCGACAT
DNA 2: TTATGTCGCAATTTACGGTACGTACGCCTCGGGGACTGTTACGGCGGAAAGCTTGGGTAACAGATTTTTACGGG
As to B4, in series [1] (setting [3]), the binding result is recorded as “no binding”.

B5: PcrcY wt 72 bp (dsDNA)
DNA 1: TTGTGTGGGTGAAGTGTTACCTCCCGCACATTTCACAGCAAAAAATCGGGTAACAGGGAAACAAATCGGCAGAA
DNA 2: TTTTCTGCCGATTTGTTTCCCTGTTACCCGATTTTTTGCTGTGAAATGTGCGGGAGGTAACACTTCACCCACAC
Take B5: the binding result in series [1] (setting [3]) was “binds”.

B6: PcrcY R2 mutant (dsDNA)
DNA 1: TTGTGTGGGTGAAGTGTTACCTCCCGCACATTTCACAGCAAAAAATCGGGTAACAGGTCTCATAATCGGCAGAA
DNA 2: TTTTCTGCCGATTATGAGACCTGTTACCCGATTTTTTGCTGTGAAATGTGCGGGAGGTAACACTTCACCCACAC
As to B6, the binding result in series [2] is “binds”.

B7: PcrcY F1 mutant (dsDNA)
DNA 1: TTGTGTGGGTGAAGGACTCTCTCCCGCACATTTCACAGCAAAAAATCGGGTAACAGGGAAACAAATCGGCAGAA
DNA 2: TTTTCTGCCGATTTGTTTCCCTGTTACCCGATTTTTTGCTGTGAAATGTGCGGGAGAGAGTCCTTCACCCACAC
As for B7, the binding result in series [1] (setting [3]) is on record as “no binding”.

B8: PcrcY R' mutant (dsDNA)
DNA 1: TTGTGTGGGTGAAGTGTTACCTCCCGCACATTTCACAGCAAAAAATCGGTACCGTGGGAAACAAATCGGCAGAA
DNA 2: TTTTCTGCCGATTTGTTTCCCACGGTACCGATTTTTTGCTGTGAAATGTGCGGGAGGTAACACTTCACCCACAC
For the molecule B8, the binding result in series [2] is reported as “binds”.

The values are drawn from publication PMC6296734, “The CbrB Regulon: Promoter dissection reveals novel insights into the CbrAB expression network in Pseudomonas putida”.
